The chains are these.
B1: Twister Ribozyme (parent)
chain: AACACUGCCAAUGCCGGUCCCAAGCCCGGAUAAAAGUGGAGGGGGCGG

Our source for the self-cleavage values is the RNAGym collection of RNA variant scans (doi:10.7554/elife.80360).

The data set covers variants of B1. Kind of data set: self-cleavage, relative activity (ratio to wild type); higher = more cleavage; co-transcriptional.
Turning to AACACUGCCAAUGCCGGGCCCCAGCCCGGAUAAAAGUGGAGGGGGCGG [U18G A22C], the self-cleavage was 0.0631.
The value for AACACAGCCAAUGCCGGUCCCAAGCCCGGAUAAAAGUGGUGGGGGCGG [U6A A40U] was 0.116; that for AACACUGCCAAUGCCGGUCCCAAGCCCGCAUAAAACUGGAGGGGGCGG [G29C G36C] was 0.122.
In the case of AACACCGCCAAUGGCGGUCCCAAGCCCGGAUAAAAGUGGAGGGGGCGG [U6C C14G] it was 0.0559.
On to AACACUGCCAAUGCCGCUCCCAAGCCGGGAUAAAAGUGGAGGGGGCGG [G17C C27G], for which the self-cleavage is 0.195.
The value for AACACUGCCGAUCCCGGUCCCAAGCCCGGAUAAAAGUGGAGGGGGCGG [A10G G13C] was 0.835.
Regarding AACACUCCCAAUGCCGGUCCCAAGCCCAGAUAAAAGUGGAGGGGGCGG [G7C G28A], the self-cleavage was 0.0408.
In the case of AACACUGCCAAUGCCGGUCCAAAGCCCGGAUAAAAGUAGAGGGGGCGG [C21A G38A] it was 0.109; in that of AACACUGCCAAUGCCGGUCCCAAGCCCGGAUAAAGGUGGAGGGGGCGC [A35G G48C], 1.04; in that of AACACUGCCAAUGCCGGUCCCAAGCCCGGAUAAAAGUGGCGGGCGCGG [A40C G44C], 0.226.
In the case of AACACUGCCAAUGCCGGUCCCAAGCCCGACUAAAAGUGGAGGGGGCGG [G29A A30C] it was 0.865; in that of AACCCUGCCAAUGCCGGUCCCAAGCCCUGAUAAAAGUGGAGGGGGCGG [A4C G28U], 0.104.
In the case of AACACUGCCAAUGCCGGUCCCAUGCCCGGAUAAAAGUGGAGGGUGCGG [A23U G44U] it was 0.484; in that of AACACUGCCAAUGCCGGUCCCAAGCCCGGAUAAAGGUUGAGGGGGCGG [A35G G38U], 0.667; in that of AACACUGCCAAUGCCGGUGCCCAGCCCGGAUAAAAGUGGAGGGGGCGG [C19G A22C], 0.219.
With AACACUGCCAAUGCCGGUCCCAAGGCGGGAUAAAAGUGGAGGGGGCGG [C25G C27G], the self-cleavage stood at 0.0774.
Take AAGACUGCCAAUGCCGGUGCCAAGCCCGGAUAAAAGUGGAGGGGGCGG [C3G C19G]: the self-cleavage came out at 0.107.
In the case of AACACUGCCAAUGCCAGUCCCAAGCCCGGAUAAAAGUGGAGGGGGCUG [G16A G47U] it was 0.487.
As to AACACCGCCAAUGCCGGUCCCAAGCCCGGAUAAAAGUGGAGGGGGCGA [U6C G48A], the self-cleavage is 0.514.
In the case of CACACUGACAAUGCCGGUCCCAAGCCCGGAUAAAAGUGGAGGGGGCGG [A1C C8A] it was 0.196; in that of AACACUGCCAAUGUCGGUCCCAAGCUCGGAUAAAAGUGGAGGGGGCGG [C14U C26U], 0.403; in that of AACACUGACAAUGCCGGUCCCAAGCCCGGAUAAAAGUGAAGGGGGCGG [C8A G39A], 0.154.
For AACACUGCCAGUGCCGGUCCCAAGCCCGGAUAAAACUGGAGGGGGCGG [A11G G36C], the self-cleavage is 0.0984.
The value for AACACUGCCAAUGCAGGUCCCAAGCCCGGAUAAAAGUGGAGGGGACGG [C15A G45A] was 0.478; that for AACACUGCCAAUGCCGGUCCCAAGCCCGGAUAAAAGUGGAGGGCGCGC [G44C G48C] was 0.225; that for AACACCCCCAAUGCCGGUCCCAAGCCCGGAUAAAAGUGGAGGGGGCGG [U6C G7C] was 0.0439.
The value for AACACUGCCCAUGCCGGUCCCAAGCCCAGAUAAAAGUGGAGGGGGCGG [A10C G28A] was 0.841; that for AACACUGCCCAUGCCGGUCCCAAGCCCGGAUAAAAGUGGGGGGGGCGG [A10C A40G] was 0.181; that for AACACUGCCAAUGCCGCUCCAAAGCCCGGAUAAAAGUGGAGGGGGCGG [G17C C21A] was 0.0572.
The value for AACACUGCCAAUGCCGGUCCCGAGCCCGGACAAAAGUGGAGGGGGCGG [A22G U31C] was 0.304; that for AACACUGCCAAUGCCGGUCCCAAGCCCGGAGAAAAGUGGAGGGUGCGG [U31G G44U] was 0.882; that for UACACUGCCAAUGCCGGUCCCAAGUCCGGAUAAAAGUGGAGGGGGCGG [A1U C25U] was 0.0883.
Consider AAUACUGCCAAUGCCGGUCCCAAGCCCGGAUAAAAGUGGCGGGGGCGG [C3U A40C], for which the self-cleavage is 0.0947.
In the case of AACACUGCCAAUGACGGUCCCAAGCCCGGAUAUAAGUGGAGGGGGCGG [C14A A33U] it was 0.908; in that of AACACUGCCAAUGCCGGUCCCAGGCCCGGUUAAAAGUGGAGGGGGCGG [A23G A30U], 0.587.
Turning to AACACUGCCCAUGCCGGUCCCAAGCCCGGAUAAAACUGGAGGGGGCGG [A10C G36C], the self-cleavage stood at 0.688.
In the case of AACACUGCCAAUGCCCGUCCCAAGCCCGGAUAAAAGUGGAUGGGGCGG [G16C G41U] it was 0.103; in that of AACACUGCCAAUGCCCGUCCCAAGCCCGGUUAAAAGUGGAGGGGGCGG [G16C A30U], 0.741; in that of AACACUGCCAAUGCCGGUCCCAAGUCCGGAUAAAAGUGGAGAGGGCGG [C25U G42A], 0.148.
In the case of AACAGUGCCAAUGCCGGUCCCAAGCCCGGAUAAUAGUGGAGGGGGCGG [C5G A34U] it was 0.309; in that of AACACUGCCAAUGCCAGUCCCAAGCCCGGACAAAAGUGGAGGGGGCGG [G16A U31C], 0.816.
AACACUGCCAAUGCCGGUCCCAAGCCAGGAUAGAAGUGGAGGGGGCGG [C27A A33G]: the self-cleavage stood at 0.294.
Turning to AACACUGCCAAUGCCGGUCCCAAGCCCGGAUAAAAGUGAAGGGGGGGG [G39A C46G], the self-cleavage stood at 0.537.
In the case of AACACUGCCAAUGCCGGUUCCAAGCCCGGAUAAAAGUGGAGGGGGAGG [C19U C46A] it was 0.853; in that of AACACUGCCAAUGCCGUUCCCAAGCCCGUAUAAAAGUGGAGGGGGCGG [G17U G29U], 0.158.
The value for AACACUGCCAAUGCCGGUCGCAAGGCCGGAUAAAAGUGGAGGGGGCGG [C20G C25G] was 0.0818.
Take AACACUGCCAAUGCCGGUCCCAAGCCCGGAGAAAAGUGGACGGGGCGG [U31G G41C]: the self-cleavage was found to be 0.278.
In the case of AACACUGCCAAUGCCGGUCCCAAGCCCGGAUAAAACUGGAGGGCGCGG [G36C G44C] it was 0.402; in that of AACACUCCCGAUGCCGGUCCCAAGCCCGGAUAAAAGUGGAGGGGGCGG [G7C A10G], 0.0662.
In the case of AACACUGCCAAUGCAGGUCCCAAGCCCGGAUAAAAGUGGUGGGGGCGG [C15A A40U] it was 0.116.
In the case of UACACUGCCAAUGCCGGUCCCAAGCCCGGAUAAAAGUGGAGGAGGCGG [A1U G43A] it was 0.0467; in that of AACACUGCCAAUGCCGGUCCCAAGACCGGAUAAAAGUCGAGGGGGCGG [C25A G38C], 0.126.
Turning to AACACUGCCAAUGCCGGUGCCAAGCCCGGAUAAAAGUGGAGGAGGCGG [C19G G43A], the self-cleavage turned out to be 0.242.
The value for AACACUGCCAAUGCCGGUACCAAGUCCGGAUAAAAGUGGAGGGGGCGG [C19A C25U] was 0.0834.
